Broadly, the EC50 is the concentration at which the effect is half-maximal. A low value points to higher potency in that assay.

The source of these data is patent publication US20030129688A1 (published 2003).

Residue numbers refer to the chain shown, from its start. Numbers in names are those of the source. Read-outs that look alike come from different tables or passages of the source. Ends that are not written are not given here.

Experiment [1] addresses T1, ErbB-3 receptor-Ig fusion (human, UniProt P21860 20-643; P21860 20-636). The experiment in a line: phage ELISA, competition with soluble ErbB-3-Ig; against wild-type HRG-β1 177-244 on phage.
In experiment [2] the target is T2, ErbB-4 receptor-Ig fusion (human, UniProt Q15303 26-651; Q15303 26-640). As to the kind of experiment: phage ELISA, competition with soluble ErbB-4-Ig; against wild-type HRG-β1 177-244 on phage.
In experiment [3] the target is T1, ErbB-3 receptor-Ig fusion. As to the kind of experiment: phage ELISA, competition with soluble ErbB-3-Ig; against HRG8.
Description: (§1) Microtiter plates (Nunc Maxisorp™ 96-well plates, Inter Med, Denmark) for phage ELISA were prepared as follows. The wells were precoated overnight with 0.5 μg of rabbit anti-human IgG (Fc gamma fragment-specific) antibodies (Jackson Immunoresearch, West Grove, Pa.) in 100 μL 50 mM NaCO₃ (pH 9.6). The wells were blocked for 30 minutes (min) with 200 μL PBS containing 0.1% bovine serum albumin (BSA) and rinsed with wash buffer (PBS containing 0.05% Tween 20™). The wells were then coated with 0.1 μg ErbB-2/3-Ig in binding buffer (PBS, 0.1% BSA, 0.05% Tween 20™) for 1 h, and washed again.
(§2) Following incubation for 2 h at room temperature, plates were washed extensively and treated with a 1:900 dilution of anti-M13 horseradish peroxidase conjugate (Pharmacia, Piscataway, N.J.) for 20 min. The amount of phage binding was determined by assaying horseradish peroxidase activity using o-phenylenediamine dihydrochloride) substrate solution (Sigma Chemical Company, St. Louis, Mo.).
In experiment [4] the target is T2, ErbB-4 receptor-Ig fusion. The experiment in a line: phage ELISA, competition with soluble ErbB-4-Ig; against HRG8. On the technique in general: ELISA stands for enzyme-linked immunosorbent assay.
Experiment [5] addresses ErbB-2/3 receptor-Ig fusion (human, UniProt P04626 23-652; P04626 23-645; P21860 20-643; P04626 23-645). As to the kind of experiment: phage ELISA, competition with soluble ErbB-2/3-Ig.
Description: as §1, §2
Experiment [6] deals with ErbB-2/3 heterodimers on MCF7 breast cancer carcinoma cells (UniProt P04626). The experiment in a line: cell-based or functional assay.
Experiment [7] deals with ErbB-2/3 receptor-Ig fusion (human) (UniProt P04626). As to the kind of experiment: 125I-HRG displacement, ErbB-2/3-Ig on plate.
Experiment [8] shares this target. The experiment in a line: phage ELISA, competition with soluble ErbB-2/3-Ig.
The target in experiment [9] is ErbB-3 receptor-Ig fusion (human) (UniProt P21860). The experiment in a line: phage ELISA, competition with soluble ErbB-3-Ig.
For experiment [10], the target named is ErbB-4 receptor-Ig fusion (human) (UniProt Q15303). As to the kind of experiment: phage ELISA, competition with soluble ErbB-4-Ig.
In experiment [11] the target is ErbB-3 receptor-Ig fusion (human) (UniProt P21860). The experiment in a line: 125I-HRG-β1 177-244 displacement, ErbB-3-Ig on plate.
Experiment [12] addresses ErbB-4 receptor-Ig fusion (human) (UniProt Q15303). The experiment in a line: 125I-HRG-β1 177-244 displacement, ErbB-4-Ig on plate.
Experiment [13] deals with T1, ErbB-3 receptor-Ig fusion. The experiment in a line: phage ELISA, competition with soluble ErbB-3-Ig.
Description: as §1, §2
Experiment [14] concerns the target T1, ErbB-3 receptor-Ig fusion. As to the kind of experiment: phage ELISA, competition with soluble ErbB-3-Ig. The source holds these as a separate data set.
Experiment [15] concerns the target T2, ErbB-4 receptor-Ig fusion. The experiment in a line: phage ELISA, competition with soluble ErbB-4-Ig.
In experiment [16] the target is T1, ErbB-3 receptor-Ig fusion. As to the kind of experiment: phage ELISA, competition with soluble ErbB-3-Ig; reference.
Experiment [17] addresses T2, ErbB-4 receptor-Ig fusion. The experiment in a line: phage ELISA, competition with soluble ErbB-4-Ig; reference.

T2 sequence (Q15303 other isoform, or with tags, fused parts or gaps): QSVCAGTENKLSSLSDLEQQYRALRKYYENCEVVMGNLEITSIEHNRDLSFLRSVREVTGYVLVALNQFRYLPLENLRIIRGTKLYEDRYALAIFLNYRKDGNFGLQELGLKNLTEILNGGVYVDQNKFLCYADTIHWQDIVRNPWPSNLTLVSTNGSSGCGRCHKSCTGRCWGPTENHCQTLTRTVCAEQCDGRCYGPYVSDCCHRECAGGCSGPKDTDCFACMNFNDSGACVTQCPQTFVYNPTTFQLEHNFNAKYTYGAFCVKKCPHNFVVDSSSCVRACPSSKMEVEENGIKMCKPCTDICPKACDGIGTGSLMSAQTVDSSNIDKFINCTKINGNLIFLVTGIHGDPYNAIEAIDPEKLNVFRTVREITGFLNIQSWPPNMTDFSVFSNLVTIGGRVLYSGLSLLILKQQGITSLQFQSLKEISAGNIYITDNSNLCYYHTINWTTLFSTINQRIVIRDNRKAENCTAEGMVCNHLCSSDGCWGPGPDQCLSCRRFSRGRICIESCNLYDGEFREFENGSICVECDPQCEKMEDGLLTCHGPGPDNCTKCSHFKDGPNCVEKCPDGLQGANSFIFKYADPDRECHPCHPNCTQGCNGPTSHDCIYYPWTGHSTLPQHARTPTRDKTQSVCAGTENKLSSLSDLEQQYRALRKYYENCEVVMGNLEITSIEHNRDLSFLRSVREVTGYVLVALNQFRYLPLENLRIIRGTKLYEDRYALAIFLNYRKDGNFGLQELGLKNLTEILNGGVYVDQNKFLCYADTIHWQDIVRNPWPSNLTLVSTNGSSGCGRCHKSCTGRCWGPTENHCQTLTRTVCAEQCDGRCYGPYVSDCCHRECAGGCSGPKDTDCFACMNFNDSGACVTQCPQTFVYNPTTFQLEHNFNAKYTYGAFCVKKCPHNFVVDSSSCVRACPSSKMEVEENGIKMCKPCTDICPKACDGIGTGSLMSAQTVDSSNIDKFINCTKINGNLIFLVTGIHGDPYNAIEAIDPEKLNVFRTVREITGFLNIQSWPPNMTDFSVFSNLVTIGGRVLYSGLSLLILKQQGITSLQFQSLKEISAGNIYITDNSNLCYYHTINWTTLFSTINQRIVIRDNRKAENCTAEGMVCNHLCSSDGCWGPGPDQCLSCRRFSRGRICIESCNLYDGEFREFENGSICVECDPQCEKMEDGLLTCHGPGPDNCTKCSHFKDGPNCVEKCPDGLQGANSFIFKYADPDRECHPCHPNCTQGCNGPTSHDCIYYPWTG
ErbB-4 receptor-Ig fusion (human), sequence (Q15303 other isoform, or with tags, fused parts or gaps): as above

As to “HRG-β1 177-244 H178D L179V displayed on phage (Example 4 clone) (from UniProt Q02297 177-244) (ligand)”, the EC50 Mut/WT amounted to 2.2 in experiment [1] and 2 in experiment [2].
The like results for “HRG-β1 177-244 H178E displayed on phage (Example 4 clone) (from UniProt Q02297 177-244) (ligand)” were, in that order, 9.5 and 1.7.
Turning to “HRG-β1 177-244 H178L displayed on phage (Example 4 clone) (from UniProt Q02297 177-244) (ligand)”, the EC50 Mut/WT was determined as 1.4 in experiment [1] and 1.2 in experiment [2].
“HRG-β1 177-244 H178L with 228-231 replaced by Met, displayed on phage (Example 4 clone) (from UniProt Q02297 177-227; Q02297 232-244) (ligand)”: the EC50 Mut/WT in experiment [1] is 6.4; in experiment [2] it was 1.7.
On to “HRG-β1 177-244 H178W with 228-231 replaced by Met, displayed on phage (Example 4 clone) (from UniProt Q02297 177-227; Q02297 232-244) (ligand)”, for which the figures for the EC50 Mut/WT in experiment [1] and in experiment [2] were 1.2 and 1.7, respectively.
The like results for “HRG-β1 177-244 L179V displayed on phage (Example 4 clone) (from UniProt Q02297 177-244) (ligand)” were, in that order, 1.5 and 1.6.
The like results for “HRG-β1 177-244 R207P displayed on phage (Example 4 clone) (from UniProt Q02297 177-244) (ligand)” were, in that order, 6.1 and 1.3.

B1: HRG-β1 EGF variant E2 displayed on phage (ligand, human, not shown: large carriers)
chain: SHLVKCAEKEKTFCVNGGECFMVKDYGYLMCKCPNEFTGDRCQNYVMASGGGSGGGSGGGS
notes: monovalent phage display
B1: the figures for the “EC50 (wt)/EC50 (mut)” value in experiment [3] and in experiment [4] were 28 ratio and 7.6 ratio, respectively.

B2: HRG37 combination variant displayed on phage (ligand, not shown: large carriers; small tags and cut ends)
chain: WELVPCGWDREGFCVNGGECFMVKDLSNPSRYLCKCPNEFTGDRCQNYVIAS-{(GGGS)3-M13 pIII C‑terminal fragment from residue 323}
modifications: ends and bridges not checked
notes: monovalent phage display, pHRG8-g3 background
Regarding B2, in experiment [3], the “EC50 (wt)/EC50 (mut)” value was 13 ratio.

B3: HRG5 (HRG-β1 147-244 fused to pIII 247, displayed on phage) (ligand, human, UniProt Q02297-6 147-244, looked up, not shown: large carriers)
chain: YVSSESPIRISVSTEGANTSSSTSTSTTGTSHLVKCAEKEKTFCVNGGECFMVKDLSNPSRYLCKCPNEFTGDRCQNYVMASFYKHLGIEFMEAEELY
notes: monovalent phage display; also called pHRG5-g3
On to B3, for which the EC50 in experiment [5] came to 4.7 nM.

B4: HRG4 (HRG-β1 147-227 fused to pIII 247, displayed on phage) (ligand, human, UniProt Q02297-6 147-227, looked up, not shown: large carriers)
chain: YVSSESPIRISVSTEGANTSSSTSTSTTGTSHLVKCAEKEKTFCVNGGECFMVKDLSNPSRYLCKCPNEFTGDRCQNYVMA
notes: range 147-227; monovalent phage display; also called pHRG4-g3
With B4, the EC50 in experiment [5] came out at 38 nM.

B5: soluble wild-type HRG-β1 EGF (HRG8) (ligand, human, UniProt Q02297-6 177-228, looked up)
chain: SHLVKCAEKEKTFCVNGGECFMVKDLSNPSRYLCKCPNEFTGDRCQNYVMAS
modifications: ends and bridges not checked; cysteine pairing not given here
B5: in experiment [6], the KIRA EC50 (ErbB-2 tyrosine phosphorylation on MCF7 cells) amounted to 0.212 nM. The molecule also yielded an EC50 in experiment [7] of 0.033 nM.

B6: HRG7 (HRG-β1 177-228 fused to pIII 247, displayed on phage) (ligand, human, UniProt Q02297-6 177-228, looked up, not shown: large carriers)
chain: B5 chain
modifications: not fully specified (C-terminus); ends and bridges not checked
B6 had a concentration giving a half-maximal response (EC50) in experiment [8] of 42 nM.

B7: HRG2 (HRG-β1 177-244 fused to pIII 247, displayed on phage) (ligand, human, UniProt Q02297-6 177-244, looked up, not shown: large carriers)
chain: SHLVKCAEKEKTFCVNGGECFMVKDLSNPSRYLCKCPNEFTGDRCQNYVMASFYKHLGIEFMEAEELY
notes: monovalent phage display; also called pHRG2-g3
With B7, the results for the EC50 in experiment [9], in experiment [10] and in [5] were 13 nM, 19 nM and 6 nM, respectively.

B8: recombinantly produced HRG-β1 177-244 (ligand, human, UniProt Q02297-6 177-244, looked up)
chain: B7 chain
Take B8: the EC50 stood at 9 nM in experiment [11] and 14.8 nM in experiment [12].

B9: HRG-β1 177-244 F216A displayed on phage (ligand, not shown: large carriers; small tags and cut ends)
chain: B7 chain with F40A
notes: from pHRG2-g3; monovalent phage display
Turning to B9, a half-maximal effect in [13] (EC50) was put at 500 nM.

B10: HRG-β1 EGF variant G1 displayed on phage (ligand, not shown: large carriers; small tags and cut ends)
chain: SHLVKCAEKEKTFCVNGGECFMVKDLSNPSRYLCRCSLEFTGDRCQNYVMAS-{(GGGS)3-M13 pIII C‑terminal fragment from residue 323}
modifications: ends and bridges not checked
notes: as for B2
On to B10, for which the figures for the “EC50 (wt)/EC50 (mut)” value in [3] and in experiment [4] were 1.2 ratio and 1.6 ratio, respectively.

B11: HRG6 (HRG-β1 177-227 fused to pIII 247, displayed on phage) (ligand, human, UniProt Q02297-6 177-227, looked up, not shown: large carriers)
chain: SHLVKCAEKEKTFCVNGGECFMVKDLSNPSRYLCKCPNEFTGDRCQNYVMA
modifications: not fully specified (C-terminus); ends and bridges not checked
notes: monovalent phage display; Ala227 restored from pHRG1-g3; also called pHRG6-g3
In experiment [5], B11 returned an EC50 of 40 nM.

B12: HRG11 (HRG-β1 177-230 fused via GGGSGGG to pIII 247, displayed on phage) (ligand, human, not shown: large carriers)
chain: SHLVKCAEKEKTFCVNGGECFMVKDLSNPSRYLCKCPNEFTGDRCQNYVMASFYGGGSGGG
notes: monovalent phage display; also called pHRG11-g3
In turn, B12 returned an EC50 in experiment [5] of 19 nM.

B13: HRG8 (HRG-β1 177-228 fused via (GGGS)3 to pIII 323, displayed on phage) (ligand, human, not shown: large carriers)
chain: SHLVKCAEKEKTFCVNGGECFMVKDLSNPSRYLCKCPNEFTGDRCQNYVMASGGGSGGGSGGGS
notes: monovalent phage display; also called pHRG8-g3; wild-type HRG-β1 EGF-phage
On to B13, for which the EC50 in experiment [14] is 135 nM; in experiment [15], 163 nM; in experiment [5], 11 nM. In addition, the “EC50 (wt)/EC50 (mut)” value in experiment [16] and in experiment [17] was 1 ratio in each case.

B14: HRG-β1 EGF variant D4 displayed on phage (ligand, human, not shown: large carriers)
chain: B13 chain with F21Y, M22R, D25T
notes: as for B2
Take B14: the “EC50 (wt)/EC50 (mut)” value in [3] amounted to 2.9 ratio; in [4], 5 ratio.

B15: HRG-β1 EGF variant B3 displayed on phage (ligand, human, not shown: large carriers)
chain: B13 chain with A7G, K9E, E10R, K11E, T12G
notes: as for B2
Consider B15, for which the “EC50 (wt)/EC50 (mut)” value amounted to 4.7 ratio in [3] and 1.7 ratio in [4].

B16: HRG-β1 EGF variant A3 displayed on phage (ligand, human, not shown: large carriers)
chain: B13 chain with S1W, H2E, K5P
notes: as for B2
For B16, the “EC50 (wt)/EC50 (mut)” value in experiment [3] was 0.96 ratio; in [4], 1.1 ratio.

B17: HRG-β1 EGF variant I2 displayed on phage (ligand, human, not shown: large carriers)
chain: B13 chain with N47H, M50I
notes: as for B2
For B17, the “EC50 (wt)/EC50 (mut)” value in [3] was 20 ratio; in [4], 10 ratio.

B18: HRG90 (HRG-β1 EGF Met226Ile) displayed on phage (ligand, human, not shown: large carriers)
chain: B13 chain with M50I
notes: monovalent phage display
On to B18, for which the “EC50 (wt)/EC50 (mut)” value in experiment [3] was 6.3 ratio.

B19: HRG73 combination variant displayed on phage (ligand, human, not shown: large carriers)
chain: SHLVKCGEEREGFCVNGGECYRVKTYGYLMCKCPNEFTGDRCQHYVIASGGGSGGGSGGGS
notes: monovalent phage display; also called B3+D4+E2+I2
In the case of B19, the “EC50 (wt)/EC50 (mut)” value in experiment [3] was determined as 56 ratio; in [4], 16 ratio.
